Experiment [1] concerns the target GhV F I268F/Q287P/S196C/A215C ectodomain (Ghanaian virus). As to the kind of experiment: negative-stain EM.
Experiment [2] concerns the target GhV F I268F/Q287P ectodomain (Ghanaian virus). As to the kind of experiment: negative-stain EM.

Consider two substances from paper PMC11032465.

“GhV F I268F/Q287P/S196C/A215C ectodomain (domain or fragment)” gave a stoichiometry N in experiment [1] of 3.

For the substance “GhV F I268F/Q287P ectodomain (domain or fragment)”, the stoichiometry N in experiment [2] turned out to be 3.

In general, stoichiometry N refers to a count of units in the complex or per binding partner.
